Reference: US20230265215A1 (OMEROS, published 2023)

Experiments:
Experiment in all cases: solid phase ELISA, against human MASP-2 as reference
MASP-1 = target: T1, MASP-1 (human, UniProt P48740 20-699, limits assumed)
T1 construct: Species read from 'Recombinant human MASP-2 or C1r, C1s, CFD, MASP-1 and MASP-3'
T1 sequence (looked up): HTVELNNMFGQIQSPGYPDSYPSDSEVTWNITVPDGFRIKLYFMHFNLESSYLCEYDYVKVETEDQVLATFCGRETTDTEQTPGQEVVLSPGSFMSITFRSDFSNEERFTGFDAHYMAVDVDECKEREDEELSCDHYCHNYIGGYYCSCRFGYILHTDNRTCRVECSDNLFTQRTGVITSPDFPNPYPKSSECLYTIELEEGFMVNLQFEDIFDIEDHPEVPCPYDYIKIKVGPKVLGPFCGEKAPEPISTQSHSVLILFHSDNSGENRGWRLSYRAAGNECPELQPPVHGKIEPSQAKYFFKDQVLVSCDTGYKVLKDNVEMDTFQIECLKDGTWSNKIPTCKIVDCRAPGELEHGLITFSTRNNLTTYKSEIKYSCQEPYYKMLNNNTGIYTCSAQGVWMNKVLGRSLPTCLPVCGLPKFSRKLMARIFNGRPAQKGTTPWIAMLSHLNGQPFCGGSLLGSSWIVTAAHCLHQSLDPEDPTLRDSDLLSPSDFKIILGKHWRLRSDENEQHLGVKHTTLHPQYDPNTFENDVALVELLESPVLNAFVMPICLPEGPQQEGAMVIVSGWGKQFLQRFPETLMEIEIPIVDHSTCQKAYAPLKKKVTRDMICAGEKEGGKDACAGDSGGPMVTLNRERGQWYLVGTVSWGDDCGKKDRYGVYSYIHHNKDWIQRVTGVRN
Description: (§1) The apparent dissociation constant (KD) was estimated by nonlinear regression using a 4-parameter logistic model.
(§2) Fold selectivity calculated as KD(related serine protease)/mean KD(MASP-2).

MASP-3 = target: T2, MASP-3 (human, UniProt P48740-2 20-728, limits assumed)
T2 construct: Species read from 'Recombinant human MASP-2 or C1r, C1s, CFD, MASP-1 and MASP-3'
T2 sequence (looked up): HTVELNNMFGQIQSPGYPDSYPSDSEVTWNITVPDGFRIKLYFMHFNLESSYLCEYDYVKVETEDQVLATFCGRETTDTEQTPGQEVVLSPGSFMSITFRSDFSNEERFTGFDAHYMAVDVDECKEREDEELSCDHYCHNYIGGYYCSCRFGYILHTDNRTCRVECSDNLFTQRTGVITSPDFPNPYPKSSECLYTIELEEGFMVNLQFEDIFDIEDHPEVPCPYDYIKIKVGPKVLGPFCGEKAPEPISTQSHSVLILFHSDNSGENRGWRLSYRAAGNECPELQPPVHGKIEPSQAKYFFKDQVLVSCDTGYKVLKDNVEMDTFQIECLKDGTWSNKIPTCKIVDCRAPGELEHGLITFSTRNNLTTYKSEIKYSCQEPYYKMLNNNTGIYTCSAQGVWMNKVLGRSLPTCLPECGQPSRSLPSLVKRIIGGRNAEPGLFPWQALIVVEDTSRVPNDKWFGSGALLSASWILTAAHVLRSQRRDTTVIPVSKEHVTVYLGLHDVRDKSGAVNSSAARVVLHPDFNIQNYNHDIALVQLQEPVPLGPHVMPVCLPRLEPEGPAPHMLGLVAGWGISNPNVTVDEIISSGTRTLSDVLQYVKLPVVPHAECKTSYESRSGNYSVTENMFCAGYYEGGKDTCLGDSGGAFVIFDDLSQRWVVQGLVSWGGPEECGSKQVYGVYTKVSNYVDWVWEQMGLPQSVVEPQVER
Description: as §1, §2

C1r = target: T3, C1r (human, UniProt P00736 18-705, limits assumed)
T3 construct: Species read from 'Recombinant human MASP-2 or C1r, C1s, CFD, MASP-1 and MASP-3'
T3 sequence (looked up): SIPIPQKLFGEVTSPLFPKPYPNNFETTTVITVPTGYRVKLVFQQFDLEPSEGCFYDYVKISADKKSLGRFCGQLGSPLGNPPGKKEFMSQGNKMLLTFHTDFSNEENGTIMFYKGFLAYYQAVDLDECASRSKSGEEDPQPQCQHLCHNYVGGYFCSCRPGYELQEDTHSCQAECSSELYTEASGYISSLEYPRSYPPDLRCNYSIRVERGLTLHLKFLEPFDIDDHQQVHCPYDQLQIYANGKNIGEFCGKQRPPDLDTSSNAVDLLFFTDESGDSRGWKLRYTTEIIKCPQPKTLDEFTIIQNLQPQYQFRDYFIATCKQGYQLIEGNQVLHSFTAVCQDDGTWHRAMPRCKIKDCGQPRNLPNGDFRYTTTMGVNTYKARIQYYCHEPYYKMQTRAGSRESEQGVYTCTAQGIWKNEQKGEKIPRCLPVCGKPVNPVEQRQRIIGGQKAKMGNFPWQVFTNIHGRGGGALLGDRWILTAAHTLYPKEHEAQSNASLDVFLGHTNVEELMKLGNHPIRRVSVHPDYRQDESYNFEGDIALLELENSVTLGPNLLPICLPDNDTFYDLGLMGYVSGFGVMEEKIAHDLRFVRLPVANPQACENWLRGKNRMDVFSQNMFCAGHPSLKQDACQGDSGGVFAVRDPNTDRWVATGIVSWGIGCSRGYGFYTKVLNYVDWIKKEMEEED
Description: as §1, §2

C1s = target: T4, C1s (human, UniProt P09871 16-688, limits assumed)
T4 construct: Species read from 'Recombinant human MASP-2 or C1r, C1s, CFD, MASP-1 and MASP-3'
T4 sequence (looked up): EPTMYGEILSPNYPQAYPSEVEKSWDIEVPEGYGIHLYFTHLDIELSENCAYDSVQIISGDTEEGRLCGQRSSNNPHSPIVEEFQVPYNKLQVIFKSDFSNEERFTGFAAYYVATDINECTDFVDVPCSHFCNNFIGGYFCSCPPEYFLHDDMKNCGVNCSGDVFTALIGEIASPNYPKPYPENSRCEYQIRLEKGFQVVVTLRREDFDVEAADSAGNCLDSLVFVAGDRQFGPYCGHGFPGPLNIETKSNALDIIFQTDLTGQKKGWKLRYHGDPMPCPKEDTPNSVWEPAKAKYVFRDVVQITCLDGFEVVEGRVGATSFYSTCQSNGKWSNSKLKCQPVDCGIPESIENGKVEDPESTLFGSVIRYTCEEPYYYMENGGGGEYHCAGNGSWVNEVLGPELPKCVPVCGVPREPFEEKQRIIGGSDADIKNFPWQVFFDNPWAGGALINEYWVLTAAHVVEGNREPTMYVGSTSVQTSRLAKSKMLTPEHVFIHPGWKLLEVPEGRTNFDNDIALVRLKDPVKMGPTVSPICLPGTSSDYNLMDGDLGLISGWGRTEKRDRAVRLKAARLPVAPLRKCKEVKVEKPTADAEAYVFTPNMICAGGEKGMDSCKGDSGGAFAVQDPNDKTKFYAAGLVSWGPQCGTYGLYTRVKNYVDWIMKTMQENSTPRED
Description: as §1, §2

Measured: Fold selectivity (KD related serine protease / mean KD MASP-2)

B1: mAb OMS858 (humanized anti-MASP-2 antibody) (antibody, V domains shown)
VH: QVQLVQSGAEVKKPGASVKVSCKASGYTFTNHHMHWLRQAPGQGLEWIGDIDASDSETHYIEKFKDRATLTIDKSSSTAYMELSSLRSEDTAVYYCARGDITTTLRYFDVWGQGTLVTVSS
VL: DIQLTQSPSSLSASVGDRVTITCSASSSVRYMYWYQQKPGKAPKLLIYDTSNLASGVPSRFSGSGSGTDNTLTISSLQPEDFATYYCQQWSSYPLTFGQGTKVEIKR
notes: also called antibody OMS858; biotinylated OMS858
> 2000 fold: all assays above
